Values of other authors in PMC7519539.

Target: RNA polymerase core (E) (Escherichia coli) (UniProt P0A7Z4)

Chain of sigma38 (P13445 whole entry): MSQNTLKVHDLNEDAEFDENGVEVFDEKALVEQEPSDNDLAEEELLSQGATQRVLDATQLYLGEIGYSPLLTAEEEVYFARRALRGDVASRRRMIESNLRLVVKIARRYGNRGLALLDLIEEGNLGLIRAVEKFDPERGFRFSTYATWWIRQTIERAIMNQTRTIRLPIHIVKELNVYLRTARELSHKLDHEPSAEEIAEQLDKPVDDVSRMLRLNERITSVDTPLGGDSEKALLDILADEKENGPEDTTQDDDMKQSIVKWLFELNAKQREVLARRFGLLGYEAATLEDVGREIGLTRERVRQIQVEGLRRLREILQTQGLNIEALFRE

sigma38 (from UniProt P13445)
Kd: 4.26 nM
